± gives the standard deviation of the averaged measurements.
System: ATP
Test: switch fluorescence ratio, 500 uM ATP over buffer (Cy3 cluster intensity, sum of 5 cycles each) (fold (ratio)); higher = stronger signal-on switching upon ATP binding; sequences stand for … in TCGTCGGCAGCGTCAGATGTGTATAAGAGACAGTTTTTTTTTTTTTTTTTTTTTTTTT…TC
Conditions: aptamer strand: ATP DNA aptamer (quencher-CACCTGGGGGAGTATTGCGGAGGAAGG + anchor), 100 nM annealed; ATP concentration: 500 uM
Summary of the method: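 Cy3-labelled switching-strand clusters on a modified Illumina MiSeq flow-cell were annealed to 100 nM quencher-labelled ATP aptamer, imaged in selection buffer, then imaged after 15 min with 500 uM ATP at 22 °C. Five buffer/ATP cycles ran, with NaOH stripping and re-annealing between them. The fluorescence ratio is summed target-cycle over summed buffer-cycle Cy3 intensity per cluster, averaged per switch-domain sequence. Clusters outside 100-1000 RFU were excluded.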
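Also: ATP exposure 15 min at 22 °C before imaging.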

With GGAATGCTAT the switch fluorescence ratio was 0.996 ± 0.013.

AGTTGGACAG showed a switch fluorescence ratio of 1.02 ± 0.012.

With GGGATTTGCG the switch fluorescence ratio was 1 ± 0.046.

In the case of GACATAGGGT, the switch fluorescence ratio is reported as 0.994 ± 0.025.

ATATAGTTGT showed a switch fluorescence ratio of 0.999 ± 0.016.

TTTCCGGGGA gave a switch fluorescence ratio of 1.18 ± 0.29.

Sequence CTTGTATAGC has a switch fluorescence ratio of 0.992 ± 0.028.

In the case of TTAGTTAGTT, the switch fluorescence ratio is reported as 0.98 ± 0.016.

GGATAGATGG showed a switch fluorescence ratio of 0.986 ± 0.02.

Work on GCGCTGACGT yielded a switch fluorescence ratio of 0.9932 ± 0.0052.

CGGTGAGGGG showed a switch fluorescence ratio of 0.989 ± 0.011.

Work on TTGTTCCGAT yielded a switch fluorescence ratio of 1.02 ± 0.032.

ACGAAGTTAG gave a switch fluorescence ratio of 0.998 ± 0.015.

In the case of TTTTGTTTT, the switch fluorescence ratio is reported as 1.02 ± 0.027.

In the case of ATGGGGAGAG, the switch fluorescence ratio is reported as 1.02 ± 0.028.

Sequence TTTATATTGG has a switch fluorescence ratio of 1.034 ± 0.00088.

Sequence CCGGAAGGGC has a switch fluorescence ratio of 1.84 ± 0.69.

CGTGTATGGG showed a switch fluorescence ratio of 1 ± 0.037.

Sequence GGTATCAGGG has a switch fluorescence ratio of 0.999 ± 0.022.

In the case of GGTATAGAGA, the switch fluorescence ratio is reported as 0.986 ± 0.051.

GGTGGAAGCT gave a switch fluorescence ratio of 1.01 ± 0.025.

With AAAATGGCGT the switch fluorescence ratio was 0.9694 ± 0.004.

Sequence GAATGATGGC has a switch fluorescence ratio of 0.939 ± 0.065.

Work on GAGGCAAGTG yielded a switch fluorescence ratio of 1.12 ± 0.055.

Sequence GGGTCGGGTT has a switch fluorescence ratio of 0.972 ± 0.037.

Work on TACGGGGTAA yielded a switch fluorescence ratio of 0.995 ± 0.022.

With ACTTCGTTCT the switch fluorescence ratio was 1.03 ± 0.034.

GTACTAGTAT showed a switch fluorescence ratio of 0.977 ± 0.023.

TTTCTTCTCA gave a switch fluorescence ratio of 1.01 ± 0.024.

AATACGATGC showed a switch fluorescence ratio of 1.2 ± 0.091.

In the case of TGGGAAATT, the switch fluorescence ratio is reported as 1.19 ± 0.19.

For TTCTATTTCG, the switch fluorescence ratio was 1 ± 0.019.

Work on TCGTCAGGTG yielded a switch fluorescence ratio of 2.48 ± 0.084.

With TTGACATCCC the switch fluorescence ratio was 1.07 ± 0.032.

Work on GAGGAAAGGG yielded a switch fluorescence ratio of 0.989 ± 0.013.

Sequence AGGTTTTTTA has a switch fluorescence ratio of 1.02 ± 0.022.

Work on TTGGGGGGTG yielded a switch fluorescence ratio of 1.04 ± 0.14.

TGTAATTTCG showed a switch fluorescence ratio of 1.03 ± 0.04.

Work on GGGGATTTTT yielded a switch fluorescence ratio of 1 ± 0.035.

In the case of AAGGGGCGT, the switch fluorescence ratio is reported as 0.9961 ± 0.0036.

In the case of AAGCGAAAGA, the switch fluorescence ratio is reported as 1.03 ± 0.014.

With TTAGTTTATC the switch fluorescence ratio was 1.02 ± 0.027.

TTTTGTTTCG gave a switch fluorescence ratio of 1.01 ± 0.028.

Sequence AAGGGCGCAG has a switch fluorescence ratio of 0.993 ± 0.056.

TCGAGGGGGC gave a switch fluorescence ratio of 1.07 ± 0.17.

TTTCGTTCAT was tested, and the switch fluorescence ratio was 1.033 ± 0.0078.

For GGGCGGGATG, the switch fluorescence ratio was 0.984 ± 0.037.

ATTTAAAAGT was tested, and the switch fluorescence ratio was 0.991 ± 0.037.

In the case of GAGAAAGGGT, the switch fluorescence ratio is reported as 0.988 ± 0.019.

CTTGAACGAA showed a switch fluorescence ratio of 1.02 ± 0.04.

For GTTCATGGTT, the switch fluorescence ratio was 1.01 ± 0.054.

Sequence GATGGGCTTT has a switch fluorescence ratio of 0.983 ± 0.024.

ATGCGCGGTA was tested, and the switch fluorescence ratio was 1.01 ± 0.068.

In the case of AGTTGGTTAC, the switch fluorescence ratio is reported as 1.01 ± 0.023.

AACTTCAGCT showed a switch fluorescence ratio of 0.995 ± 0.03.

GGGGGAAAGA was tested, and the switch fluorescence ratio was 0.989 ± 0.047.

CGATGGGAGG gave a switch fluorescence ratio of 1.06 ± 0.073.

With TTTGTGAGGA the switch fluorescence ratio was 0.996 ± 0.034.

In the case of CATCGGGTGG, the switch fluorescence ratio is reported as 1.03 ± 0.09.

Sequence GCACCATCCA has a switch fluorescence ratio of 1.03 ± 0.013.

ACGAAATAGT gave a switch fluorescence ratio of 1.183 ± 0.0065.

Work on CCGTTTTTTG yielded a switch fluorescence ratio of 1 ± 0.032.

For AGGAGACGAA, the switch fluorescence ratio was 0.985 ± 0.031.

TGGTCTTCCA gave a switch fluorescence ratio of 1.04 ± 0.013.

GTATTATTAA showed a switch fluorescence ratio of 1.05 ± 0.0015.

With TTAATAACTT the switch fluorescence ratio was 1.01 ± 0.019.

With GGACCAAGTG the switch fluorescence ratio was 1.03 ± 0.025.

In the case of GGTATGTTAA, the switch fluorescence ratio is reported as 0.98 ± 0.014.

With CACAACGGTG the switch fluorescence ratio was 1.04 ± 0.033.

With TGCAAAAGGC the switch fluorescence ratio was 0.972 ± 0.013.

With CGGGGCAGCG the switch fluorescence ratio was 1.02 ± 0.042.

GGGAAAGGGG gave a switch fluorescence ratio of 1.01 ± 0.02.

GGGGATGTGC showed a switch fluorescence ratio of 1.01 ± 0.04.

ATCGATTTTA showed a switch fluorescence ratio of 0.978 ± 0.056.

TTTAATTTT gave a switch fluorescence ratio of 1.04 ± 0.078.

AATAGCATGT showed a switch fluorescence ratio of 0.981 ± 0.012.

For AGTTGAGATG, the switch fluorescence ratio was 0.971 ± 0.033.

For GAGGCGGGGG, the switch fluorescence ratio was 0.988 ± 0.012.

TAGGGATGGG was tested, and the switch fluorescence ratio was 1.02 ± 0.019.

GAAGACAGCG showed a switch fluorescence ratio of 1.07 ± 0.024.

With CCTTTGGATA the switch fluorescence ratio was 1.13 ± 0.16.

For TTATCATCTT, the switch fluorescence ratio was 1.01 ± 0.032.

TCCCCTCGGC showed a switch fluorescence ratio of 1.08 ± 0.046.

AAATTGAGAG was tested, and the switch fluorescence ratio was 1.004 ± 0.0021.

For GAGATTGGTT, the switch fluorescence ratio was 1.007 ± 0.0072.

For GGGGGCGGAA, the switch fluorescence ratio was 1 ± 0.027.

GGGTGTTACA was tested, and the switch fluorescence ratio was 1.05 ± 0.022.

TTTTGAGGGA gave a switch fluorescence ratio of 0.9877 ± 0.002.

Work on TAGGTCGATA yielded a switch fluorescence ratio of 1 ± 0.023.

CCTTTCTTTT gave a switch fluorescence ratio of 1.04 ± 0.049.

CTTGTGTGTT showed a switch fluorescence ratio of 0.993 ± 0.057.

Sequence TATCTGGGGG has a switch fluorescence ratio of 1.01 ± 0.055.

TTGAGCGGGG was tested, and the switch fluorescence ratio was 0.9876 ± 0.005.

For CGTTGGGGT, the switch fluorescence ratio was 0.986 ± 0.019.

With ATAAGGTCGT the switch fluorescence ratio was 1.02 ± 0.039.

TAAAATACGT gave a switch fluorescence ratio of 0.995 ± 0.042.

Work on ATTGAGTCTG yielded a switch fluorescence ratio of 1.02 ± 0.047.

Sequence TCTTTCATGT has a switch fluorescence ratio of 1.02 ± 0.02.

Work on CGGCGATCGG yielded a switch fluorescence ratio of 0.99 ± 0.013.

Work on AGTTAGACTT yielded a switch fluorescence ratio of 1.02 ± 0.064.

ATCTTCTAAG was tested, and the switch fluorescence ratio was 1.02 ± 0.03.

GCAGTTAGGG gave a switch fluorescence ratio of 0.995 ± 0.079.

Sequence AGGAGGTTCC has a switch fluorescence ratio of 1.02 ± 0.061.

Work on ATGGGGGGGA yielded a switch fluorescence ratio of 1.02 ± 0.027.

In the case of TTTCGGTTAA, the switch fluorescence ratio is reported as 1.09 ± 0.11.

With TGAGAGATTG the switch fluorescence ratio was 0.9773 ± 0.007.

TTTTTGCTGT gave a switch fluorescence ratio of 2.91 ± 3.3.

Sequence TCCAGGGGCA has a switch fluorescence ratio of 1.67 ± 0.1.

With GGGCTAGACG the switch fluorescence ratio was 0.997 ± 0.085.

Sequence TTCGAGTCTT has a switch fluorescence ratio of 0.9742 ± 0.0083.

For TCATGGGCGC, the switch fluorescence ratio was 1.01 ± 0.014.

AGGGTGAATT showed a switch fluorescence ratio of 0.9848 ± 0.0075.

With GGATTTGGTA the switch fluorescence ratio was 0.978 ± 0.032.

With AGGGGGAGTT the switch fluorescence ratio was 0.979 ± 0.025.

Work on ATTTTTTGCC yielded a switch fluorescence ratio of 0.962 ± 0.052.

Sequence GGGTACCTAC has a switch fluorescence ratio of 1.06 ± 0.042.

In the case of GAGGATTTAG, the switch fluorescence ratio is reported as 0.964 ± 0.013.

GGCAATTGTA gave a switch fluorescence ratio of 1.03 ± 0.027.

With GTTCGGGGCC the switch fluorescence ratio was 1.01 ± 0.046.

GCTTCCTTTT was tested, and the switch fluorescence ratio was 1.01 ± 0.022.

For TGTAGTTTGG, the switch fluorescence ratio was 1.02 ± 0.032.

CGGGACAGCG showed a switch fluorescence ratio of 1.01 ± 0.0058.

Sequence TTCGCGTTAG has a switch fluorescence ratio of 1.23 ± 0.29.

In the case of TGACCGCCGT, the switch fluorescence ratio is reported as 1.06 ± 0.035.

With TGAGGGGGAT the switch fluorescence ratio was 1 ± 0.051.

With CGAGAGTGTT the switch fluorescence ratio was 0.995 ± 0.026.

GGCTTGGGAA was tested, and the switch fluorescence ratio was 0.968 ± 0.027.

For TATATAACGG, the switch fluorescence ratio was 1.036 ± 0.01.

Sequence TGTATTTGGC has a switch fluorescence ratio of 0.914 ± 0.044.

In the case of TGTGAAAAGT, the switch fluorescence ratio is reported as 0.996 ± 0.028.

TTGGGAGAAA showed a switch fluorescence ratio of 0.9804 ± 0.0092.

CCAGGGGCTG showed a switch fluorescence ratio of 1.67 ± 0.89.

TTTTGCTTTT showed a switch fluorescence ratio of 0.998 ± 0.027.

In the case of GCACTTGGTG, the switch fluorescence ratio is reported as 1.02 ± 0.024.

With TTGAGTCAAT the switch fluorescence ratio was 1.044 ± 0.0078.

In the case of TTTCGTTGAA, the switch fluorescence ratio is reported as 0.9964 ± 0.0069.

In the case of CTTGCAAACG, the switch fluorescence ratio is reported as 1.201 ± 0.0043.

For AAGGGTCAGC, the switch fluorescence ratio was 0.9917 ± 0.0081.

For ATTTTGAGGC, the switch fluorescence ratio was 1.02 ± 0.035.

For GGGGCTCATT, the switch fluorescence ratio was 0.983 ± 0.021.

Sequence GGTTCAGCTT has a switch fluorescence ratio of 0.981 ± 0.013.

TAATCGGGCG gave a switch fluorescence ratio of 1.02 ± 0.022.

With TACAGAATCG the switch fluorescence ratio was 1.014 ± 0.0014.

For GTACGGGGGT, the switch fluorescence ratio was 0.996 ± 0.059.

In the case of CTAAGGGGGT, the switch fluorescence ratio is reported as 0.9503 ± 0.0032.

With TCCGATTTAT the switch fluorescence ratio was 0.989 ± 0.026.

Work on GGAATACGTT yielded a switch fluorescence ratio of 1.08 ± 0.061.

AAAGAAGTGG gave a switch fluorescence ratio of 0.959 ± 0.027.

With CTGGTATAGA the switch fluorescence ratio was 1 ± 0.046.

In the case of TAGCTGGATG, the switch fluorescence ratio is reported as 0.98618 ± 0.00039.

CAATTTTGGA was tested, and the switch fluorescence ratio was 1.01 ± 0.028.

In the case of AATGGTATTC, the switch fluorescence ratio is reported as 0.998 ± 0.025.

For AGTGTCTTTG, the switch fluorescence ratio was 0.954 ± 0.011.

AACTACAACG showed a switch fluorescence ratio of 1.05 ± 0.018.

GGTTGGTTTT was tested, and the switch fluorescence ratio was 0.992 ± 0.024.

GTGAGTAAGG showed a switch fluorescence ratio of 0.9778 ± 0.00085.

In the case of GCGACCGTGT, the switch fluorescence ratio is reported as 0.9908 ± 0.0014.

— the supplement of paper PMC10126150
